Reference: the nanobody polyreactivity screen of Harvey et al. (2022)

Test: yeast display, Sf9 membrane polyspecificity reagent, FACS + sequencing; frameworks hold sequencing errors
In short: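 Polyreactivity labels are assigned by the sorting gate from which each nanobody was recovered. The gates were low and high (top ~1%), set on anti-HA fluorescence for expression and streptavidin fluorescence for reagent binding. Before sorting, galactose-induced (36–48 hours) yeast display cells were stained for 1 hour at 4 °C with 10% biotinylated, detergent-solubilized Sf9 membrane reagent.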

| Sequence | polyreactivity (PSR sort gate) |
| --- | --- |
| QVQLVESGGGLVQAGGSLRLSCAASGYTFPVYAKGWYRQASRKERELVATSTSGGSTNYADSVKGRFTISRDNAKNTVYFQMNSLKPEDTAVYYCAADRALSISLYPIASFYYWGQGTQVTVSS | low polyreactivity |
| QVQLVESGGGLVQAGGSLRLSCAASGYTFPYYTMGWYRQAPGKERELVATITRRGDSTYYADSVKGRFTLSRDNAKNTVYLQMNSLKPEDTAVYYCNTASYGRHQFRKSSKMDYWGQGTQVTVSS | high polyreactivity |
| QVQLVESGGGLVQAGGSLRLSCAASGYTFQYNSMGWYRQAHGKERELVATISNRGTSTYYADSVKGRFTISRDNAKKTVYLQMNSLKPEDTAVYYCAKSRWSLYSSGVWSRRHFYYWGHGTQVTVSS | high polyreactivity |
| QVQLVESGGGLVQAGGSLRLSCAASGYTFRFNAMGWYRQAPGKEREFVAAIDFGGAGTYYADSVKGRFTISRDNATNTVYVQMNSLKPEDTAVYYCNARDGVTTEFDYWGQGTQVTVSS | low polyreactivity |
| QVQLVESGGGLVQAGGSLRLSCAASGYTFRGYAMGWYRQAPGKERELVAAISWSGGRTYYADSVKVRFTISRDNAKNTVYLQMNSLKPEDTAVYYCDAETHVGWPAKFDYWGQGTQVTVSS | high polyreactivity |
| QVQLVESGGGLVQAGGSLRLSCAASGYTFRYYAMGWYRQAHGKERELVAAITSSTSSTYYADSVKGRFTISRDNAKNTVYLQMNSLKPEDTAVYYCNRVWSTSMDYWGEGTQVTVSS | high polyreactivity |
| QVQLVESGGGLVQAGGSLRLSCAASGYTFRYYAMGWYRQAHGKERELVDDINSGDITNYADSVKGRFTISRDNAKYTVYLQMNSLKTEDTAVYYCARRTFSLYDYWGQGTQVTVSS | low polyreactivity |
| QVQLVESGGGLVQAGGSLRLSCAASGYTFRYYAMGWYRQAPGKDRELVAVISSGGSTKYADSVKGRFTNSRDNAKNTVYLQMNSLKPEDTAVYYCAARYRSLYNYWGQGTQVTVSS | high polyreactivity |
| QVQLVESGGGLVQAGGSLRLSCAASGYTFRYYAMGWYRQAPGKERELVAAITWSGGSTYYADSVKGRFTISRDNAKNTVYLQMNSLKPEDTAVYYCATDSARVGNFPDPQFDYWGQGTQVTVSS | low polyreactivity |
| QVQLVESGGGLVQAGGSLRLSCAASGYTFSDNAMGWYRQAPGKERELVAAITSGVSTYYADSVKGRFTISRDNAKNTVYLQMNSLKPEDTAVYYCAKDVAVYADLYQGAPYGYWGQGTQVTVSS | low polyreactivity |
| QVQLVESGGGLVQAGGSLRLSCAASGYTFSFYAMGWYIQAPGKERELVATISWRGGSTYYADSVKGRFTISRDNAKNTVYLQMNSLKPEDTAVYYCNIVDKTGSKMDYWGQGTQVTVSS | high polyreactivity |
| QVQLVESGGGLVQAGGSLRLSCAASGYTFSLNAMGWYRQAPGKERELVAAIRGGGSTNYADSVKGRFTISRDNAKKTVYLQMNSLKPEDTAVYYCAASSYNGHVYWGQGTQVTVSS | low polyreactivity |
| QVQLVESGGGLVQAGGSLRLSCAASGYTFSRNAMGWYRPAPGKERELVAAITGSGGSTYYADSVKGRFTISRDNAKNTVYLQMNSLKPEDTAVYYCASKYYGRSFYYGYDYWGQGTQVTVSS | low polyreactivity |
| QVQLVESGGGLVQAGGSLRLSCAASGYTFSRNAMGWYRQAPGKERELVADINYSGGITYYADSVKGRFTISRDNAKNTVYLQMNSLKPEDTAVYYCAAVATNVPTHGRPSRRAYDYWGQGTQVTVSS | low polyreactivity |
| QVQLVESGGGLVQAGGSLRLSCAASGYTFSRYAMGWYRQAPGKERELVAAISHSAGRTYYADSVKGRFTISRDNAKNTVYLQMNSLKPEDTAVYYCATAYKPDTRDDYWGQGTQVTVSS | high polyreactivity |
| QVQLVESGGGLVQAGGSLRLSCAASGYTFSRYAMGWYRQAPGKERELVAAITSRGGRTYYADSVKVRFTISRDNAKNTVFLQMNSLKPEDNAVYYCAADVIFWRTGYDYWGPGTQVTVSS | high polyreactivity |
| QVQLVESGGGLVQAGGSLRLSCAASGYTFTHYAMGWYRQAPGKERELVASISQSGGSTYYPDSVKGSFTISRDNAQYTVYGQMNSLKPEDTAVYYCAVDYYYDQSLYEYCGQGTQVTVSS | high polyreactivity |
| QVQLVESGGGLVQAGGSLRLSCAASGYTFTSNAMGWYRQAPGKERELVAAISRSGVSTSYADSVKGRFTISRDNAKNTVYLQMNSLKPEDSAVYYCNRYYWDPTHPRYDSWGQGTQVTVSS | high polyreactivity |
| QVQLVESGGGLVQAGGSLRLSCAASGYTFTSNAMGWYRQAPGKERELVADISTGVDSTYYADSVKGRFTISRDNAKNTVYLQMNSLKPEDTAVYYCNADILVAWYDEPFDYWGQGTQVTVSS | low polyreactivity |
| QVQLVESGGGLVQAGGSLRLSCAASGYTFVWYAMGWYRQAPGKERELVAAISASGGSTYYADSVKGRFTISRDNAKNTVYLQMNSLKPEDTAVYYCNAVGALSVYGGNGYWGQGTQVTVSS | high polyreactivity |
| QVQLVESGGGLVQAGGSLRLSCAASGYTFWQYAMGWYRQAPGKERELVATITSRGGSTYYADSVKGRFTISRDNAKNTVYLQMNSLKPEDSAVYYCNARRRYSTRRSDYWGQGTQVTVSS | high polyreactivity |
| QVQLVESGGGLVQAGGSLRLSCAASGYTFYANAMGWYRQAPGKEREFVASITWSGGSTYYADSVKGRFTISRDNAKNTVYLQMNSLKPEDTAVYYCNTDLTYPYPNVEVLVYGFKLDYWGQGTQVTVSS | low polyreactivity |

| Sequence | polyreactivity (PSR sort gate) |
| --- | --- |
| QVQLVESGGGLVQAGGSLRLSCAASGYTFYANAMGWYRQAPGKEREFVASNTWSGGSTYYADSVKGRFTISRDTAKITVYLQMNSLKPEDTAVYYWAAESWFNYDYWGQGTQVTVSS | low polyreactivity |
| QVQLVESGGGLVQAGGSLRLSCAASGYTFYIYAMGWSRQAPGKERELVATISSSGGGTYYADSVKGRFTISRDNAKNTVYFQMYSQKPEDTAVYDCNAAGWYWQAEGYDYWGQGTQVTVSS | low polyreactivity |
| QVQLVESGGGLVQAGGSLRLSCAASGYTFYKYAMGWYRQAPGKEREFVADITQSGGSTYYADSVKGRFTISRDNAKNTVYLQMNSLKPEDTAVYYCNAAYSYRPDPKGYDYWGQGTQVTVSS | low polyreactivity |
| QVQLVESGGGLVQAGGSLRLSCAASGYTFYRYAMGWYRQAPGKERELVARISRSGGSTFYADSVKGRFTISRDNAKNTVYLQMNSLKPEDTAVYYCNAKQYSPYYLVIYHYWGQGTQVTVSS | high polyreactivity |
| QVQLVESGGGLVQAGGSLRLSCAASGYTFYRYTMGWYRQAPGKERELVAAINSGGSTNYADSLKGRFTISRDNAKYTVYLQMNSLKPEDTAVYYCARRYQTWPRWYDYWGQGTQVTVSS | high polyreactivity |
| QVQLVESGGGLVQAGGSLRLSCAASGYTIDGYAMGWYRQAPGKERELVAGISSAGTTNYADSVKGRFTISRDNAKNTVYLQMNSLKPEDTAVYYCNKDYSTYWLYTWQITVADDYWGQGTQVTVSS | low polyreactivity |
| QVQLVESGGGLVQAGGSLRLSCAASGYTIISYGMGWYTQAPGKERELVAAISSGDRTNYADSVKGRFTISRDNAKNTVYLQMNSLKPEDTAVYYCNADRASSSVGYSDEFGHDSWGQGTQVTVSS | low polyreactivity |
| QVQLVESGGGLVQAGGSLRLSCAASGYTINPYAIGWYRQAPGKERELVATIRSSGSTNYADSVKGRFTISRDNAKYTVYLQRNSLKPEDTAVYYFAARTSGRTVRYYYWGQGTQVTVSS | high polyreactivity |
| QVQLVESGGGLVQAGGSLRLSCAASGYTIRNYAMGWYRQAPGTERELVAAIRGSGGSTYYADSVKGRFTISRDNAKNTVYLQMNSLKPEDTAVDYCNADQLVWQRYGVLYEYDYWGQGTQVTVSS | high polyreactivity |
| QVQLVESGGGLVQAGGSLRLSCAASGYTLSVNAMGWYRQAPGKERELVATIDFGGGSTYYADSVKGRFTISRDNAKNTVYLKMNSLKPEDTAVYYCNTEWTSLSKSSLGGRYDHWGQGTQVTVSS | low polyreactivity |
| QVQLVESGGGLVQAGGSLRLSCAASGYTLVGYAMGWYRQAPGKEMELVAVISGSGGSTRYADSVKGRFTISRDNAKYTVYLQMNSLNPEDTAVYYCAARQPRTQAVYEGYYWGQGTQVTVSS | high polyreactivity |
| QVQLVESGGGLVQAGGSLRLSCAASGYTVYANAMGWYRQAPGKEREFVASITWSGGSTYYADSVKGRFSISRDNAKNPVYLQMNSLKPEDTAVYYCAAESWFKYDYWGQGTQVTVSS | low polyreactivity |
| QVQLVESGGGLVQAGGSLRLSCAASNSSINAMGWYRQAPGKERELVAAIRWSGSSTYYADSEKGRFPISRDNAKTTVYLQMNSLKPEDTAVYYCAADTTTGDRGFDYWGQGTQVTVSS | high polyreactivity |
| QVQLVESGGGLVQAGGSLRLSCAASRFIFQPYAMGWYRQAPGKERELVAAITSRGGRTYYADSVKGRFTISRDNAKNTVYLKMNSLKPEDSAVYYCNADIYASEYYYWGQGTQVTVSS | low polyreactivity |
| QVQLVESGGGLVQAGGSLRLSCAASRFTFLTNAMGWYRKAPGTERELVAAISSGGNTNYADSVKGRFTISRDNAKNTVYLQMNSLKPEDTAVYYCAADNDYLSSQVSYDYWGQGTQVTVSS | low polyreactivity |
| QVQLVESGGGLVQAGGSLRLSCAASRFTFVRYAMGWYRQAPGKEREFVASISARGGNTFYADSVKGRFTISRDNAKNTVYLQMNSLKPEDTAVYYCAASRRVGEVSYYYWGQGTQVTVSS | high polyreactivity |
| QVQLVESGGGLVQAGGSLRLSCAASRFYTMGWYRPAPGKERELVAAISWSGGDTYYADSVKGRYTISRDNAKNTVYLQMNSLKPEDPAVFYCNKDYSFEYSLRHRDYWGQGTQVTVSS | low polyreactivity |
| QVQLVESGGGLVQAGGSLRLSCAASRIFAYYTMGWIRQSPGKERELVAAITYSGGSTFYADSVKGRFTISRDNAKNTVYLQMNRLKPEDSSVYYCNAVVRNYGYDYWGQGTQVTVSS | high polyreactivity |
| QVQLVESGGGLVQAGGSLRLSCAASRIFRGYAMGWYRQAPGKERELVAAIDRGVSTYYADSVKGRFTISRDNAKNTVYLQMNSRKPEDTAVYYCAVEYWEPYDMDYWGQGTQVTVSS | high polyreactivity |
| QVQLVESGGGLVQAGGSLRLSCAASRLIVYQNAMGWYRQAPGKEREFVAAISWSGGRTYYADSVKGRFTISRDNAKNTVYLQMNSLKPEDTAVYYCAARFTYYTYEFEYWGQGTQVTVSS | high polyreactivity |
| QVQLVESGGGLVQAGGSLRLSCAASRLTFQQYAMGWYRQAPGKERELVAAITSDGASTNYADSVKGRFTISRDNAKNTVYLQMNSLKPEDTAVYYCAARRSSRQYRYDYWGQGTQVTVSS | high polyreactivity |
